Results published in US20060253917A1 (published 2006).

What was measured:
OsMADS15 aa 100-235 = target: T1, OsMADS15 aa 100-235 (Oryza sativa, UniProt Q6Q9I2 100-235); test: Y2H; input trait library
T1 construct: bait, Gal4 DBD fusion; also called PN20842
T1 chain: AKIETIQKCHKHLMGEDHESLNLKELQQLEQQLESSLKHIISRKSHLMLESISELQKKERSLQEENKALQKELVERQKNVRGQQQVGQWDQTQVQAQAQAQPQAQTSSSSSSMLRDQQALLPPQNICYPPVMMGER
Outline: (§1)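 Protein-protein interactions were detected with an automated, high-throughput yeast two-hybrid assay provided by Myriad Genetics Inc. (Salt Lake City, Utah). A bait clone encoding a defined amino-acid fragment of a rice protein was screened against a rice prey library, either the input trait or the output trait library. Prey clones were retrieved, and their encoding sequences were compared by BLAST against databases to identify the interacting proteins.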

OsMADS8 aa 79-248 = target: T2, OsMADS8 aa 79-248 (Oryza sativa, UniProt Q9SAR1 79-248); test: Y2H; output trait library
T2 construct: prey, AD fusion; also called PN20778
T2 sequence: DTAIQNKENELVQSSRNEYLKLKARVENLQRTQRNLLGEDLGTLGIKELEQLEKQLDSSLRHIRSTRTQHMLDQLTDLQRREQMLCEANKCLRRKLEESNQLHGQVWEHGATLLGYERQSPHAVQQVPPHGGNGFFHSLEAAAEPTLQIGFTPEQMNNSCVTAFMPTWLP
Outline: as §1

OsMADS1 aa 70-257 = target: T3, OsMADS1 aa 70-257 (Oryza sativa, UniProt A2XDY1 70-257); test: Y2H; output trait library
T3 construct: prey, AD fusion; also called PN19788
T3 sequence: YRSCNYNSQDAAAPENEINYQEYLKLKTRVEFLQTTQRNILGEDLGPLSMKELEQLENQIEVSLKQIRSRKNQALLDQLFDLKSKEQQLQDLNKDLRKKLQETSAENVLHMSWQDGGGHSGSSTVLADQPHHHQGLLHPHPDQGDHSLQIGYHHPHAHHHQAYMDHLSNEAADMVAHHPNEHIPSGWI
Outline: as §1

OsMADS8 aa 75-238 = target: T4, OsMADS8 aa 75-238 (Oryza sativa, UniProt Q9SAR1 75-238); test: Y2H; output trait library
T4 construct: prey, AD fusion; also called PN20778
T4 sequence: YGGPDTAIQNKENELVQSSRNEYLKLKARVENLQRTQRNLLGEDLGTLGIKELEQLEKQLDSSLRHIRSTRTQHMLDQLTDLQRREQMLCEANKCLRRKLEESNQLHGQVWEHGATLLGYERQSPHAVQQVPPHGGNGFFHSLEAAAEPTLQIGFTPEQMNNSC
Outline: as §1

OsMADS45 aa 83-234 = target: T5, OsMADS45 aa 83-234 (Oryza sativa, UniProt P0C5B0 83-234); test: Y2H; output trait library
T5 construct: prey, AD fusion; also called PN20231
T5 sequence: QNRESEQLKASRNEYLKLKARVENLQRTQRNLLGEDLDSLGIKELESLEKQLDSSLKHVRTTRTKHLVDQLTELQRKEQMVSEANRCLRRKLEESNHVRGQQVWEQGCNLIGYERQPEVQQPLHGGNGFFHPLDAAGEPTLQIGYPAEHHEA
Outline: as §1

OsRAP1B aa 1-179 = target: T6, OsRAP1B aa 1-179 (Oryza sativa, UniProt Q10CQ1 1-179); test: Y2H; output trait library
T6 construct: prey, AD fusion; also called PN20232
T6 sequence: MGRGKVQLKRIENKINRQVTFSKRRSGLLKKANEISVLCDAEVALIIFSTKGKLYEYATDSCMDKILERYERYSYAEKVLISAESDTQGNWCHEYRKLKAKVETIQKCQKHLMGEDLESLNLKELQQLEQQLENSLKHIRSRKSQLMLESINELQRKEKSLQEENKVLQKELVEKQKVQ
Outline: as §1

OsMADS45 aa 48-249 = target: T7, OsMADS45 aa 48-249 (Oryza sativa, UniProt P0C5B0 48-249); test: Y2H; input trait library
T7 construct: prey, AD fusion; also called PN20231
T7 sequence: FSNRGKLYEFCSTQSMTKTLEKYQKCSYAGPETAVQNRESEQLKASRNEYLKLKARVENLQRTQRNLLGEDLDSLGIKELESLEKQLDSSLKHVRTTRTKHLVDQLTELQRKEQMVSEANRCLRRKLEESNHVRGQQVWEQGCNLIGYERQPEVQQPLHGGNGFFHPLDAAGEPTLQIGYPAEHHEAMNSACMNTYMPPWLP
Outline: as §1

OsMADS8 aa 61-248 = target: T8, OsMADS8 aa 61-248 (Oryza sativa, UniProt Q9SAR1 61-248); test: Y2H; input trait library
T8 construct: prey, AD fusion; also called PN20778
T8 sequence: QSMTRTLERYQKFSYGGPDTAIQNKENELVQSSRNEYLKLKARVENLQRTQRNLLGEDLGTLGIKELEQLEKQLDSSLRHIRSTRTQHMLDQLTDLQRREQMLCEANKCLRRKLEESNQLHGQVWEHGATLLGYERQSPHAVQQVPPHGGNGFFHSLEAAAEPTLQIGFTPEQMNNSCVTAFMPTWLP
Outline: as §1

OsMADS45 aa 57-249 = target: T9, OsMADS45 aa 57-249 (Oryza sativa, UniProt P0C5B0 57-249); test: Y2H; output trait library
T9 construct: prey, AD fusion; also called PN20231
T9 sequence: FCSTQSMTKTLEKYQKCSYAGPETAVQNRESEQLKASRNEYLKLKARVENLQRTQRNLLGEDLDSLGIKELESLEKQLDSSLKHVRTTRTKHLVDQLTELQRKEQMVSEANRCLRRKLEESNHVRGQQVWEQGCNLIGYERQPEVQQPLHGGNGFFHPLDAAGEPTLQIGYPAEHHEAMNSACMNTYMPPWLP
Outline: as §1

OsMADS8 aa 68-245 = target: T10, OsMADS8 aa 68-245 (Oryza sativa, UniProt Q9SAR1 68-245); test: Y2H; output trait library
T10 construct: prey, AD fusion; also called PN20778
T10 sequence: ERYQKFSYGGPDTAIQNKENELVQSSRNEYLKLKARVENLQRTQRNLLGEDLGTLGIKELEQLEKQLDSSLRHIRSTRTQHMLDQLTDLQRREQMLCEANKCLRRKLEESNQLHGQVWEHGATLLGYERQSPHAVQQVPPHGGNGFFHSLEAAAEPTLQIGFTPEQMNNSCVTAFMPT
Outline: as §1

OsMADS45 aa 2-214 = target: T11, OsMADS45 aa 2-214 (Oryza sativa, UniProt P0C5B0 2-214); test: Y2H; output trait library
T11 construct: prey, AD fusion; also called PN20231
T11 sequence: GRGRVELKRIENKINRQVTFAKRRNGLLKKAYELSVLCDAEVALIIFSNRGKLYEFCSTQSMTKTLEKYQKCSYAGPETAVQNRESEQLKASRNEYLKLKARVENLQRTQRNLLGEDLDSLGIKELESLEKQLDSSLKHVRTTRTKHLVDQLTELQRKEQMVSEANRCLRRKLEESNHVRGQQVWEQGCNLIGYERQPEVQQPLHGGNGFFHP
Outline: as §1

OsMADS8 aa 6-159 = target: T12, OsMADS8 aa 6-159 (Oryza sativa, UniProt Q9SAR1 6-159); test: Y2H; output trait library
T12 construct: prey, AD fusion; also called PN20778
T12 sequence: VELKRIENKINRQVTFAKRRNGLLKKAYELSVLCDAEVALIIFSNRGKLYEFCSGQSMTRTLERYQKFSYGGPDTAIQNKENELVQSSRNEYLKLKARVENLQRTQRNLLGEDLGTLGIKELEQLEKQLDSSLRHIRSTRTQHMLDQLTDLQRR
Outline: as §1

OsMADS45 aa 56-249 = target: T13, OsMADS45 aa 56-249 (Oryza sativa, UniProt P0C5B0 56-249); test: Y2H; output trait library
T13 construct: prey, AD fusion; also called PN20231
T13 sequence: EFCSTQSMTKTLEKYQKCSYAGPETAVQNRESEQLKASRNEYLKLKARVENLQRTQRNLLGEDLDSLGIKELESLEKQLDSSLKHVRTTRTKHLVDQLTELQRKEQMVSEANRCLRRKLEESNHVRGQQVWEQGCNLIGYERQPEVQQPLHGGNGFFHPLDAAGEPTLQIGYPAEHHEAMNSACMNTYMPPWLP
Outline: as §1

Measured: binding result

B1: OsPN29971 aa 1-108 (other)
chain: EKSDVQSTLEMELDRRSNDWSVKLAEFQSEEQRLRERVRELAEQNVSFQREVTLLESNRIDVSNKITSLELQNKQLNDELQKVKKEHDTLLKSSVELNDNLTKTAEGY
notes: prey, AD fusion; also called Novel protein PN29971, fragment, similar to A. thaliana centromere protein
binds: OsMADS15 aa 100-235

B2: OsMADS6 aa 50-200 (other)
chain: SRGKLYEFGSAGITKTLERYQHCCYNAQDSNNALSETQSWYHEMSKLKAKFEALQRTQRHLLGEDLGPLSVKELQQLEKQLECALSQARQRKTQLMMEQVEELRRKERQLGEINRQLKHKLEVEGSTSNYRAMQQASWAQGAVVENGAAYV
notes: bait, Gal4 DBD fusion; also called PN20233
binds: OsMADS8 aa 79-248 | OsMADS1 aa 70-257 | OsMADS8 aa 75-238 | OsMADS45 aa 83-234 | OsRAP1B aa 1-179

B3: OsMADS3 aa 70-170 (other)
chain: KKANSDTSNSGTVAEVNAQHYQQESSKLRQQISSLQNANSRTIVGDSINTMSLRDLKQVENRLEKGIAKIRARKNELLYAEVEYMQKREVELQNDNMYLRS
notes: bait, Gal4 DBD fusion; also called PN20700
binds: OsMADS45 aa 48-249 | OsMADS8 aa 61-248 | OsMADS45 aa 57-249 | OsMADS8 aa 68-245 | OsMADS45 aa 2-214 | OsMADS8 aa 6-159

B4: OsFDRMADS8 aa 60-160 (other)
chain: APSLQKTIDRYKAYTKDHVNNKTIQQDIQQVKDDTLGLAKKLEALDESRRKILGENLEGCSIEELRGLEMKLEKSLHNIRLKKTELLERQIAKLKEKERTL
notes: bait, Gal4 DBD fusion; also called PN20698
binds: OsMADS45 aa 56-249
